Consider 36 sequences from the supplement of paper PMC12764529.

The nature of data set [1]: folding stability dG unfold (combined trypsin and chymotrypsin); higher = more stable. The gist of the method:
(§1)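 Designed mini-proteins with no cysteine and under 80 residues were kept only if AlphaFold2 dimer inter-PAE was above 15. In a PA-tagged cDNA display construct, they were digested with trypsin and chymotrypsin and then sequenced. K50 was inferred by Bayesian fitting of counts, and unfolding free energy was derived per protease or combined against a sequence-predicted unfolded-state K50 and a shared folded-state K50.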

A short description of data set [2]: folding stability dG unfold from trypsin proteolysis; higher = more stable. The gist of the method:
as §1

A short description of data set [3]: folding stability dG unfold from chymotrypsin proteolysis; higher = more stable. A digest of the protocol: as §1

± gives the half width of the 95% confidence interval.

Take “SAGGSAGGEMTAEELAEKLAEELKEKGYEVEVEVVEVEVEEDTVRIKIKLKDGRELEIELKIEPSAGGSAGG [r6_617_TrROS_Hall]”: the “folding stability dG unfold” value in data set [1] worked out at 2.74 ± 0.25 kcal/mol; in data set [2] it was 2.58 ± 0.16 kcal/mol; in data set [3] it was 2.79 ± 0.28 kcal/mol.
Consider “SAGGSAGGEPETIEIKMTPEELEELARELEKEGYTIEVEVVEEKVVGPDGKEREVVVRVRVEKRSAGGSAGG [r6_857_TrROS_Hall]”, for which the “folding stability dG unfold” value stood at 1.1 ± 0.099 kcal/mol in data set [1], 0.991 ± 0.03 kcal/mol in data set [2] and 1.32 ± 0.04 kcal/mol in data set [3].
For “SAGGSAGGESSRLVAVFKFPPSNPNIKTSISFPSLPKSAKISESQAPFGNEYYLVVVIEVPKNSSAGGSAGG [r6_480_TrMRF]” the same measures were 3.37 ± 0.16 kcal/mol, 2.6 ± 0.16 kcal/mol and 3.88 ± 0.14 kcal/mol.
The like results for “SAGGSAGGEYEISIPNYELTEEKFDPNPGLLTVTYKDPEGKLVTITYKVKPDSIEKVKTETFEPSAGGSAGG [r6_719_JUSTAS]” were, in that order, 0.963 ± 0.064 kcal/mol, 0.569 ± 0.022 kcal/mol and 1.14 ± 0.049 kcal/mol.
For the sequence “SAGGSAGGFFHIEIEWRPVKLEDLPEEDAANGKELKPGDEIWVIVKIEIYPMPPPKFDKDGELNSAGGSAGG [r6_547_TrROS]”, the figures for the “folding stability dG unfold” value in data set [1], in data set [2] and in data set [3] were 2.77 ± 0.2 kcal/mol, 2.23 ± 0.19 kcal/mol and 3.31 ± 0.23 kcal/mol, respectively.
Take “SAGGSAGGFKIPPGKTIMIQYPDGWMWRIKVKDGNTHMFKSPEEIEKLLNKPGFEIEIEWFPLDSAGGSAGG [r6_433_TrROS]”: the “folding stability dG unfold” value in data set [1] came out at 1.67 ± 0.19 kcal/mol; in data set [2], 1.63 ± 0.083 kcal/mol; in data set [3], 1.74 ± 0.24 kcal/mol.
On to “SAGGSAGGGAVVLEEAFDPVRPERLVLVEVVNEKGEPFRFPVPLEDLEAVFEKLPPGFPVLVLPSAGGSAGG [r6_111_TrMRF]”, for which the “folding stability dG unfold” value in data set [1] was 0.36 ± 0.048 kcal/mol; in data set [2], 0.491 ± 0.021 kcal/mol; in data set [3], 0.135 ± 0.1 kcal/mol.
“SAGGSAGGGDEVKTFKAKVKLVSVDPETGEQLVLAEVPDGKPILVKVPKSFPLKEDEIVEFELSSAGGSAGG [r6_68_TrMRF]”: the “folding stability dG unfold” value in data set [1] was determined as 1.3 ± 0.059 kcal/mol; in data set [2], 1.16 ± 0.027 kcal/mol; in data set [3], 1.31 ± 0.036 kcal/mol.
Consider “SAGGSAGGGEMELVLTVPPEEVTPEQLLELVEEIREALEKGGAKAEPVKIDPEKGVVILFRVDPSAGGSAGG [r6_850_TrMRF]”, for which the “folding stability dG unfold” value is 0.00838 ± 0.26 kcal/mol in data set [1], -0.273 ± 0.14 kcal/mol in data set [2] and 0.258 ± 0.27 kcal/mol in data set [3].
Turning to “SAGGSAGGGEPFVIRVELEWPNNNSIPFNIPFPPGDAITAAKNIASPLRKMGRPIKIKITDIYPSAGGSAGG [r6_721_TrROS]”, the “folding stability dG unfold” value came to 0.419 ± 0.16 kcal/mol in data set [1], 0.545 ± 0.13 kcal/mol in data set [2] and 0.0836 ± 0.41 kcal/mol in data set [3].
As for “SAGGSAGGGFILEVDPEKGVAVAYFDPSTGEVVVAVPEGPVYRFASAEEVVAATGKPVVIVPATSAGGSAGG [r6_752_TrMRF]”, the “folding stability dG unfold” value in data set [1] was found to be 0.966 ± 0.054 kcal/mol; in data set [2], 1.17 ± 0.024 kcal/mol; in data set [3] it was 0.702 ± 0.044 kcal/mol.
On to “SAGGSAGGGGMTVTITVPVPSPTATYTVSFPSSSATASFTAEPGGPLTITVNAPSVTSITVTVSSAGGSAGG [r6_808_JUSTAS]”, for which the “folding stability dG unfold” value in data set [1] is 3.63 ± 0.11 kcal/mol; in data set [2], 3.03 ± 0.1 kcal/mol; in data set [3], 3.98 ± 0.053 kcal/mol.
The like results for “SAGGSAGGGGTLTIEVDAPAGAKKINIELPGGTVSNLSYDPSTGKATIPFDTPEQAKAVEALVGSAGGSAGG [r6_745_TrMRF]” were, in that order, -0.086 ± 0.058 kcal/mol, -0.493 ± 0.097 kcal/mol and 0.098 ± 0.088 kcal/mol.
For “SAGGSAGGGKPKVEIEYNGKTYEFDSLEELVAEAKEPVRIRLPNGEEIELSREDLKNLTVRLVPSAGGSAGG [r6_684_TrROS_Hall]” the same measures were 1.99 ± 0.043 kcal/mol, 1.55 ± 0.018 kcal/mol and 2.29 ± 0.056 kcal/mol.
“SAGGSAGGGKRLEITRTYFIPPDDIDKLKDLPGIREVTPHRMPDGYYMITVTIRIPISADQLKASAGGSAGG [r6_155_TrROS]”: the “folding stability dG unfold” value in data set [1] was found to be 1.94 ± 0.2 kcal/mol; in data set [2], 1.7 ± 0.051 kcal/mol; in data set [3], 2.1 ± 0.084 kcal/mol.
In the case of “SAGGSAGGGMKFVKVTLEYAGGEVREYLFTTSSSDSTVEVVIEDLPPEKGARITEITEYPASLLSAGGSAGG [r6_530_JUSTAS]”, the “folding stability dG unfold” value in data set [1] amounted to 0.978 ± 0.21 kcal/mol; in data set [2] it was 0.746 ± 0.068 kcal/mol; in data set [3], 1.17 ± 0.16 kcal/mol.
For “SAGGSAGGGMKITEITIEKDPENPDTYTITIKVDGKTYTITVKKGETLYIFDKDGKLVLEIKVDSAGGSAGG [r6_920_TrROS_Hall]” the same measures were 5.1 ± 0.25 kcal/mol, 4 ± 0.41 kcal/mol and 5.24 ± 0.14 kcal/mol.
The like results for “SAGGSAGGGMKVKKIEIKKDPNNPNIYTITIELEDEPIEYTVPPSTPTTIKKPGGKPLYSSPLPSAGGSAGG [r6_922_JUSTAS]” were, in that order, 0.567 ± 0.15 kcal/mol, -0.626 ± 0.24 kcal/mol and 0.986 ± 0.26 kcal/mol.
Consider “SAGGSAGGGMPPVVTTEISVEEVRPDERDENGNRYFLVTTTLTFPDSTVTTERWLEEEELEELLSAGGSAGG [r6_724_JUSTAS]”, for which the “folding stability dG unfold” value in data set [1] is 1.09 ± 0.15 kcal/mol; in data set [2], 1.3 ± 0.033 kcal/mol; in data set [3], 0.912 ± 0.16 kcal/mol.
The like results for “SAGGSAGGGMPSITLLETVEEKLPGSRTRVTTLSYDPATGNLVVTTTTFASPGTSTTSTTVLPPSAGGSAGG [r6_745_JUSTAS]” were, in that order, 1.33 ± 0.074 kcal/mol, 1.13 ± 0.038 kcal/mol and 1.51 ± 0.069 kcal/mol.
Turning to “SAGGSAGGGMRIDDIDIKQDPGNPNRYKITIKFDGPPIEFTVPPGEPLPIRFPDGKPLFEIPIDSAGGSAGG [r6_922_TrROS]”, the entries for the “folding stability dG unfold” value in data set [1], in data set [2] and in data set [3] were 0.479 ± 0.068 kcal/mol, 0.312 ± 0.062 kcal/mol and 0.486 ± 0.16 kcal/mol, respectively.
As to “SAGGSAGGGMSMEELKTVDYPLVVTVPLPDGSTVTVSAKVPAEDLDKAIPEVEERAKALAEEGASAGGSAGG [r6_903_JUSTAS]”, the “folding stability dG unfold” value in data set [1] was 0.843 ± 0.059 kcal/mol; in data set [2], -0.194 ± 0.053 kcal/mol; in data set [3], 1.26 ± 0.038 kcal/mol.
In the case of “SAGGSAGGGMTAEELAAKAIEEALKAGETVTVEIEVTNPNGETFTLELTLVVVDPDDPEALEALSAGGSAGG [r6_534_TrROS_Hall]”, the entries for the “folding stability dG unfold” value in data set [1], in data set [2] and in data set [3] were 1.49 ± 0.05 kcal/mol, 1.64 ± 0.057 kcal/mol and 1.29 ± 0.014 kcal/mol, respectively.
For “SAGGSAGGGMTLQITSIIEIKKPPDGPVVKFTVAGPGTTRTVTINLPENEIKPTTPIPLSRVLSSAGGSAGG [r6_585_JUSTAS]” the same measures were 1.57 ± 0.31 kcal/mol, 1.86 ± 0.13 kcal/mol and 0.968 ± 0.48 kcal/mol.
As for “SAGGSAGGGNVYVKIEIYPYDPKNGEPQEQDITIPFETKEDAKDEIEKLLNMPNGMWIKIEVVDSAGGSAGG [r7_0_TrROS]”, the “folding stability dG unfold” value in data set [1] worked out at 1.47 ± 0.12 kcal/mol; in data set [2], 1.31 ± 0.053 kcal/mol; in data set [3] it was 1.47 ± 0.035 kcal/mol.
On to “SAGGSAGGGPDPSLPPPEVIEVVLPPDTLFRPPGGGYLSPEEVVELAKELEEREGIKATVTIRPSAGGSAGG [r6_162_JUSTAS]”, for which the “folding stability dG unfold” value in data set [1] worked out at 0.823 ± 0.15 kcal/mol; in data set [2] it was 1 ± 0.09 kcal/mol; in data set [3], 0.588 ± 0.095 kcal/mol.
Take “SAGGSAGGGPPLPPPVLVLPARVERVFYDPVTGELTVETVDFPVVIRPDGSVYLGDRWIPPELLSAGGSAGG [r6_514_TrMRF]”: the “folding stability dG unfold” value in data set [1] came to 1.61 ± 0.2 kcal/mol; in data set [2] it was 1.23 ± 0.046 kcal/mol; in data set [3] it was 1.85 ± 0.12 kcal/mol.
Regarding “SAGGSAGGGPPNAPLKIYTDDGSVNLLNLDGQPLLVTVHPDATAEITLPDGTKITVPIPPGANLSAGGSAGG [r6_105_TrMRF]”, the “folding stability dG unfold” value in data set [1] worked out at 0.977 ± 0.069 kcal/mol; in data set [2] it was 1.26 ± 0.072 kcal/mol; in data set [3] it was 0.628 ± 0.054 kcal/mol.
On to “SAGGSAGGGSISIPGPGPVSATTDPVTKTLVTVTYPTSEVRIPIEGDKFTEAETTPLPPPPALTSAGGSAGG [r6_847_JUSTAS]”, for which the entries for the “folding stability dG unfold” value in data set [1], in data set [2] and in data set [3] were 0.708 ± 0.072 kcal/mol, -0.16 ± 0.1 kcal/mol and 1.08 ± 0.036 kcal/mol, respectively.
As to “SAGGSAGGGSLKYTPGVHRLTYYDPATGTTTTLTFTSEEEALEYLKKKYPDVPWKRNPDGTWVLSAGGSAGG [r6_288_JUSTAS]”, the “folding stability dG unfold” value in data set [1] turned out to be 2.08 ± 0.25 kcal/mol; in data set [2] it was 1.62 ± 0.059 kcal/mol; in data set [3], 2.15 ± 0.12 kcal/mol.
For “SAGGSAGGGSMGSVSVSETTTTSTEGSTTTTTTVHTTTVGGTTTTTTTTTTTSPTPGASSPATASAGGSAGG [r6_684_JUSTAS]” the same measures were 1.85 ± 0.047 kcal/mol, 2.01 ± 0.065 kcal/mol and 1.71 ± 0.043 kcal/mol.
In the case of “SAGGSAGGGSMSMPVTTKLVEEYTFPGTKEEAEEFLKKKLPPNYQVEITETPDSIKVKVYKVEGSAGGSAGG [r6_953_JUSTAS]”, the “folding stability dG unfold” value in data set [1] came out at 2.38 ± 0.057 kcal/mol; in data set [2] it was 2.31 ± 0.053 kcal/mol; in data set [3] it was 2.36 ± 0.042 kcal/mol.
On to “SAGGSAGGGSMSVSYDPSTGNTITTTTTRSPTPLTTTTTTTTFPDGSTSTSTTTTAAPPPAPTTSAGGSAGG [r6_955_JUSTAS]”, for which the “folding stability dG unfold” value in data set [1] worked out at 0.761 ± 0.046 kcal/mol; in data set [2], 0.833 ± 0.029 kcal/mol; in data set [3], 0.716 ± 0.024 kcal/mol.
For “SAGGSAGGGWITIPIYIIKMKRTRRDPDGKPKPLDPNDPEDFEVVPPRPFRIPLPPEEAKKLLKSAGGSAGG [r6_219_TrROS]” the same measures were -0.434 ± 0.24 kcal/mol, -0.542 ± 0.32 kcal/mol and -0.464 ± 0.43 kcal/mol.
In the case of “SAGGSAGGIEVKIEGEIKPVKVTVSFSTANGDGNPKEYPVEKTYLVVDIKIEVNSPEAAKKINISAGGSAGG [r6_149_TrMRF]”, the entries for the “folding stability dG unfold” value in data set [1], in data set [2] and in data set [3] were 2.51 ± 0.14 kcal/mol, 1.37 ± 0.058 kcal/mol and 3 ± 0.13 kcal/mol, respectively.
On to “SAGGSAGGIIVWFPFDDIDELIKNGNIDEVEISRDPNDWFRFTPEIRPPPPPPPEQLAKNNKKNSAGGSAGG [r6_279_TrROS]”, for which the “folding stability dG unfold” value in data set [1] was found to be 0.735 ± 0.22 kcal/mol; in data set [2], 1.03 ± 0.16 kcal/mol; in data set [3], 0.493 ± 0.11 kcal/mol.
